# Test results from US8088892B2, “Inhibitors of proteins from the Rho-GEF family” (Centre National de la Recherche Scientifique (C.N.R.S.), priority 2002, dated 2012).
# Entries after “also recorded” stand apart in the source; their conditions may differ.
# B1: TRIAPα: aptamer of 154 amino acids: variable region of 42 amino acids inserted into the thioredoxin protein; tested as GST fusion (protein)
# chain: MSDKIIHLTDDSFDTDVLKADGAILVDFWAEWCGPAREGADGAICGYNLATLVMLGPSERVFCPLCEPCSSDIYELMGPCKMIAPILDEIADEYQGKLTVAKLNIDQNPGTAPKYGIRGIPTLLLFKNGEVASATKVGALSKGQLKEFLDANLA
# Assays:
# [1] = biological target: T1, Full length Trio (RhoA) (Homo sapiens, UniProt O75962); experiment: Yeast Exchange Assay (YEA), full length Trio on RhoA; assay type: cell-based; set-up: key: “+ +” represents a slight activation of the reporter gene; “+ + + +” represents a strong activation of the reporter gene; “−” represents no activation of the reporter gene; settings: +TRIPα (−TRIPα: −)
# T1 construct: Full length Trio was introduced into the YEA; expressed in transfected cells; host or cells: yeast strain TAT7
# From the text: The wild type GTPase is fused to the LexA DNA binding domain (Matchmaker GAL4 two-hybrid, Clontech Laboratories, Inc., USA) and the effector to the […] (Matchmaker GAL4 two-hybrid, Clontech, Inc., USA). Under these conditions, no binding occurs in the TAT7 strain (De Toledo et al., 2000). Upon addition of a third plasmid expressing the GEF, the GTPase gets activated and binds to its effector, thus leading to the transactivation of the reporter gene LacZ.
# Full length Trio was introduced into the YEA and tested for its ability to activate RhoA and RhoG respectively, in the presence or absence of TRIPα. The table below summarizes the effect of TRIPα on Trio as schematized in this Figure.
# In order to better characterise the effect of TRIAPα on the Trio full length RhoGEF activity, the yeast exchange assay (YEA) was used, which is a quick and quantitative test derived from the classical two-hybrid system allowing to measure Rho-GEF activity and specificity (De Toledo et al., 2000). This functional assay is based on the fact that the GTPase binds to its effector only if it is activated by a RhoGEF. Briefly, yeasts are transformed with the GTPase fused to the LexA binding domain (LexA), and its effector to the GAL-4 Activating Domain (GAD), and with the adequate Rho-GEF partner in the yeast strain TAT7 (FIG. 7). […]
# [2] = biological target: T2, TrioDH2 (a.a. 1848-2096) (Homo sapiens, UniProt O75962); experiment: Binding specificity of aptamers in yeast; settings: growth on selective medium
# T2 construct: TrioDH2 (a.a. 1848-2096); expressed in transfected cells; host or cells: yeast
# From the text: Trx represents the thioredoxin protein with no inserted peptide.
# In order to identify specific inhibitors of TrioGEFD2, a recently developed strategy was used, this strategy being derived from the yeast two hybrid system, where the cDNA library of preys has been replaced by a combinatorial library of short peptides (20 amino acids) in fusion with the bacterial protein thioredoxin A (Colas et al., 1996). This strategy has been successfully used to isolate specific inhibitors of the cyclin-dependent kinases (Cdks), the cell cycle transcription factor E2F, or the viral HPV16 E6 oncoprotein and HBEV core protein (Colas et al., 1996; Butz et al., 2001; Fabrizzio et al., 1999; Geyer et al., 2000). The TrioGEFD2 bait was constructed as follows: plasmid pMTHATrio1848-2298 (Bellanger et al., 1998) was digested with EcoRI/XhoI and the insert cloned in pEG202EcoRI/XhoI to generate the bait pEG202TroGEFD2. Yeast strain EGY048 (Colas et al., 1996) was transformed with pEG202TrioGEFD2 and subsequently with the library of Thioredoxin constrained aptamers according to standard procedures (Ito et al., 1983). After transformation, cells were allowed to recover for 4 hours in galactose containing medium before plating on selective galactose medium. Of the 2×10^6 screened colonies, those growing in the selective medium were recovered and retested for interaction. […]
molecule,measurement,setting,value
"AREGADGAICGYNLATLVMLGPSERVFCPLCEPCSSDIYELM [TRIPα, 42-amino acid peptide corresponding to the variable region of TRIAPα]","activation of the reporter gene by full length Trio, RhoA",[1],−
B1,Binding to the DH2 catalytic domain in yeast,[2],also binds to the DH2 catalytic domain; also recorded: interacted with the DH2 catalytic domain alone
